# Data published in patent publication US5851983A, “Elastase inhibitory polypeptide and process for production thereof by recombinant gene technology” (Teijin Limited, priority 1987, dated 1998).
# pIC50: −log10 of the molar value.
# How the values were obtained:
# Calf pancreatic trypsin = target: T1, Calf pancreatic trypsin (Bos taurus, UniProt P00760); test: Serine protease inhibitory assay, Example 12: trypsin; format: biochemical; details: read-out: concentration of inhibitory protein which exhibits a 50% inhibition; enzyme 10^-7 M; Bz-Arg-pNA 1.0 mM; 37° C.
# T1 construct: (2) Calf pancreatic trypsin (Sigma); purchased Sigma; host or cells: calf pancreas
# T1 sequence (P00760 24-246): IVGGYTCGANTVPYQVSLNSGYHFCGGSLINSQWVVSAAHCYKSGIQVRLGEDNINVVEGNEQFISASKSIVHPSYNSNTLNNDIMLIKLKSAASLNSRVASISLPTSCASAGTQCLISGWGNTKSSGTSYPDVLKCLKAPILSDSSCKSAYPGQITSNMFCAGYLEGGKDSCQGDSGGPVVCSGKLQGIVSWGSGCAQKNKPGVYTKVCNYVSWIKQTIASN
# Procedure: Assay of serine protease inhibitory activity of active-type (Asn^55 -Ala^107) SLPI fragment polypeptide
# The active-type (Asn^55 -Ala^107) SLPI fragment polypeptide obtained by refolding by the procedure shown in Example 11 as measured to determine its inhibitory activity to various serine proteases. The assay result thereof is shown as follows.
# Enzyme solution: The following enzymes were dissolved in the above-mentioned buffer solutions at a concentration ten-times higher than the concentration shown in Table 4.
# (2) Calf pancreatic trypsin (Sigma)
# Substrate solution: For the above-mentioned enzymes (1) to (7), the following substrates (1) to (7), respectively, were dissolved in dimethyl sulfoxyde to a concentration of 10 mM to prepare stock solutions, which were then dissolved in the above-mentioned buffer solution to concentration ten-times higher than final concentrations, to prepare substrate solutions. […]
# To each well of a 96-well ELISA microplate were added 140 μl of the above-mentioned buffer, 20 μl of a test solution, and 20 μl of the enzyme solution, and the mixture was stirred at 37° C. for 30 minutes. Next, 20 μl of the substrate solution was added to the well, the mixture was stirred at 37° C. for one hour to develop same, and the absorbance at 405 nm was measured.
# Moreover, an inhibitory constant Ki of the present (Asn^55 -Ala^107) SLPI was calculated on the basis of the above data by a method of Dixon, M. and Webb, E. C. (1979), Enzyme, Longman or a method of Henderson, P. J. F. (1972) Biochem. J., 127, 321-333.
# [1] = target: T2, polymorphonuclear leukocyte elastase from human sputum (Homo sapiens, UniProt P08246); test: Thermal stability (Example 14); format: physicochemical; details: 50 mM Tris-HCl (pH 7.8), 50° C. for 2 hours
# T2 construct: Polymorphonuclear leukocyte elastase from human sputum (EPC Co; Funakoshi Yakuhin); purchased EPC Co. (via Funakoshi Yakuhin); host or cells: human sputum
# T2 sequence (P08246 30-267): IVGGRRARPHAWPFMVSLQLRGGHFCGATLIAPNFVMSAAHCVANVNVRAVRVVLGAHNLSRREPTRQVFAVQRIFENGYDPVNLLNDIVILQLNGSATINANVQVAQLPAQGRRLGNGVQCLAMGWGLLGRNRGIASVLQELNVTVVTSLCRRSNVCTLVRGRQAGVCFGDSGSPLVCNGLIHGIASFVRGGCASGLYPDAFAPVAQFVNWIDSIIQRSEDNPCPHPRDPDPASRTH
# Procedure: After a solution of an active-type (Asn^55 -Ala^107) SLPI fragment polypeptide in 50 mM Tris-HCl (pH 7.8) was treated at 50° C. for 2 hours, the inhibitory activity on polymorphonuclear leukocyte elastase from human sputum was measured.
# [2] = Partial hydrolysis with healthy human saliva (Examples 15, 16); format: in vitro ADME; details: 37° C.
# Procedure: Healthy human saliva was filtered through a 0.22 μm filter (Milex GS, Milipore), and in the filtrate was dissolved 1 mg/ml of the SLPI prepared in Reference Example 1. The mixture was then incubated at 37° C. for 30 days. As a control, the SLPI was dissolved in physiological saline (Physisalz; Fuso Yakuhin Kogyo), and the mixture was incubated at 37° C. for 30 days.
# With an elapse of time, samples were taken and to each sample were added a Tris-HCl buffer (pH 6.8), SDS, 2-mercaptoethamel and glycerol, to final concentration of 60 mM, 2% by weight, 4% by weight and 10% by weight, respectively, and the mixture was subjected to an SDS-PAGE (U.K. Laemmli, Nature, 227, 680, 1970). The gel after electrophoresis was stained with Coomussie Brilliant Blue.
# Next, polypeptides in the polyacrylamide gel thus obtained were electrically transferred to a membrane (Immobilon; Milipore) using a Milli Blot-SDE apparatus. After the transfer, the membrane was stained with 0.1% by weight of Coomassie Blue in 40% by weight methanol/1% by weight acetic acid, and washed with water. Then, after air drying, the bands b, c, d and e were excised, and for each band, the PTH-amino acids were cleaved from the N-terminus with an Applied Biosystems Protein Sequences (Applied Biosystems; 470A) and analysed with a PTH analyser (Applied Biosystems, 120A) to determine an amino acid sequence for 10 amino acids from the N-terminus.
# According to the same procedure as described in Example 15, (Asn^55 -Ala^107) SLPI prepared in Example 11 was treated with healthy human saliva at 37° C., and a result is shown in FIG. 13. […] After 12 hours, a new band g (MW about 5,500) appeared.
# Next, according to the same procedure as described in Example 15, the band g was electrically transferred to a membrane and N-terminal amino acid sequence was analyzed. […] The 6th amino acid could not be determined. The N-terminal amino acid sequence of the band g corresponds to an amino acid sequence starting from Arg^59 of SLPI.
# [3] = target: T3, polymorphonuclear leucocyte elastase from human sputum (Homo sapiens, UniProt P08246); test: Simultaneous treatment with healthy human saliva and elastase (Examples 28, 29); format: in vitro ADME; details: 37° C.
# T3 construct: Polymorphonuclear leukocyte elastase from human sputum (EPC Co; Funakoshi Yakuhin); purchased EPC Co. (via Funakoshi Yakuhin); host or cells: human sputum
# T3 sequence (P08246 30-267): T2 sequence (P08246 30-267)
# Procedure: (1) Healthy human saliva was ultra-filtered through a 0.22 μm filter (Millex GS, Millipore), and to the filtered saliva were added SLPI and polymorphonuclear leucocyte elastase from human sputum (EPC, Funakoshi Yakuhin) to a final concentration of 50 μM respectively. The mixture was incubated at 37° C., samples were taken as time elapsed, and analyzed by SDS-PAGE as described in Example 27.
# (2) Next, the band J was transferred to a membrane as described in Example 27, and N-terminal amino acid sequence was analyzed.
# (1) According to the same procedure as described in Example 28, to healthy human saliva were dissolved SLPI and polymorphonuclear leucocyte elastase from human sputum to final concentrations of 50 μM and 100 μM respectively, and the mixture was incubated at 37° C. Samples were taken as time elapsed, and analyzed by SDS-PAGE.
# (2) Next, N-terminal amino acid sequence of the band M was analyzed as described in Example 27.
substance,measurement,setting,value
(Asn^55 -Ala^107) SLPI: polypeptide having an amino acid sequence starting with the 55th Asn and ending at the 107th Ala of SLPI (NPTRRKPGKCPVTYGQCLMLNPPNFCEMDGQCKRDLKCCMGMCGKSCVSPVKA),pIC50,Calf pancreatic trypsin,6.89
same,elastase inhibitory activity after heat treatment (thermal stability),[1],maintained at the same level
same,SDS-PAGE band after incubation in physiological saline without saliva,[2]; 96 hours,"only the band f having an MW of about 5,800 remained"
same,SDS-PAGE bands after incubation in healthy human saliva,"[2]; 96 hours, band f = starting polypeptide, band g MW about 5,500",only the band g remained after 96 hours of incubation
same,cleavage sites in healthy human saliva,"[2]; SDS-PAGE bands, N-terminal sequencing",cleaved at a site between Arg^58 -Arg^59
same,SDS-PAGE bands on simultaneous treatment with healthy human saliva and elastase,"[3]; 50 μM polypeptide, elastase 50 μM (Example 28) or 100 μM (Example 29)","after 48 hours, almost only band M was observed"
same,cleavage site on simultaneous treatment with healthy human saliva and elastase,[3]; N-terminal sequencing of SDS-PAGE band,cleaved at the site between Thr^57 -Arg^58
